{"source": "patent US20200299342A1", "key": {"[1]": {"target": "Skp1tr-F-box^Fbw7 complex (human) (UniProt P63208)", "experiment": "SPR, complex immobilised, Cul1 NTD injected"}, "[2]": {"target": "Skp1tr-F-box^Fbw7 complex (human) (UniProt P63208)", "experiment": "SPR"}, "[3]": {"target": "Skp1tr-F-box^Fbw7 complex (human) (UniProt P63208)", "experiment": "ELISA"}}, "data": [{"substance": "Cul1 N-terminal domain (NTD) (from UniProt Q13616 1-410)", "values": [{"measurement": "fold weaker than with Skp1-F-box^Fbw7", "setting": "[1]", "result": 1000, "unit": "fold"}, {"measurement": "Kd", "setting": "[2]", "result": 3.6, "unit": "nM"}, {"measurement": "EC50", "setting": "[3]", "result": 11, "unit": "nM"}]}]}
